In patent US20190336574A1 (TRUSTEES OF PRINCETON UNIVERSITY, published 2019):

Tests used:
[1] = target: T1, HA-SND1, full-length human, wild type (human, UniProt Q7KZF4 1-910); assay: cell-based or functional assay
T1 sequence: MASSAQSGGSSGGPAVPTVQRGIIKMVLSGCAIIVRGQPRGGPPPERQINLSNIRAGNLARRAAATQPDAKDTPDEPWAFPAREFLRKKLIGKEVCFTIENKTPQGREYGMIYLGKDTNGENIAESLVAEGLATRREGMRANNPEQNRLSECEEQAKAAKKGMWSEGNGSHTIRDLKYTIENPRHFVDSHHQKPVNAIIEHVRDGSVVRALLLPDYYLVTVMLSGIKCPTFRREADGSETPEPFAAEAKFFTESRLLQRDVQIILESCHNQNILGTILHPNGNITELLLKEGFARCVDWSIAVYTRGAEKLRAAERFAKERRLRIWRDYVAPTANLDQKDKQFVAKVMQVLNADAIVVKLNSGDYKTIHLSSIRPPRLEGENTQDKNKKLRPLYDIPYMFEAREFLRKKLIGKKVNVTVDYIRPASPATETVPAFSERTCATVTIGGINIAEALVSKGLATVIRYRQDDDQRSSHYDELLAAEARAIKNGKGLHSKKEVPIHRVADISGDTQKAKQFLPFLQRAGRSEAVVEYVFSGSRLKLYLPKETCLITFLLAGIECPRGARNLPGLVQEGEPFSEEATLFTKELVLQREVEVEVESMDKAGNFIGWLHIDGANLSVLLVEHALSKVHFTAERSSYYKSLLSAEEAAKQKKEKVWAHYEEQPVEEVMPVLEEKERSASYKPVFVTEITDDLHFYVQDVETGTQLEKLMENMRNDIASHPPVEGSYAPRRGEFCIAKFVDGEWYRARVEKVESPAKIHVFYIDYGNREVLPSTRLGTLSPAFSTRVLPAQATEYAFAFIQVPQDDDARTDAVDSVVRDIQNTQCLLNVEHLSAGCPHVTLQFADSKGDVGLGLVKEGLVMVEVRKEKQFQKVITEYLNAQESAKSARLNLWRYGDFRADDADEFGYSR

[2] = target: T2, HA-SND1 R255E, full-length human (human, UniProt Q7KZF4 1-910); assay: co-IP (anti-Myc) from HEK293T lysates, western blot
T2 construct: Full-length, HA-tagged
T2 sequence: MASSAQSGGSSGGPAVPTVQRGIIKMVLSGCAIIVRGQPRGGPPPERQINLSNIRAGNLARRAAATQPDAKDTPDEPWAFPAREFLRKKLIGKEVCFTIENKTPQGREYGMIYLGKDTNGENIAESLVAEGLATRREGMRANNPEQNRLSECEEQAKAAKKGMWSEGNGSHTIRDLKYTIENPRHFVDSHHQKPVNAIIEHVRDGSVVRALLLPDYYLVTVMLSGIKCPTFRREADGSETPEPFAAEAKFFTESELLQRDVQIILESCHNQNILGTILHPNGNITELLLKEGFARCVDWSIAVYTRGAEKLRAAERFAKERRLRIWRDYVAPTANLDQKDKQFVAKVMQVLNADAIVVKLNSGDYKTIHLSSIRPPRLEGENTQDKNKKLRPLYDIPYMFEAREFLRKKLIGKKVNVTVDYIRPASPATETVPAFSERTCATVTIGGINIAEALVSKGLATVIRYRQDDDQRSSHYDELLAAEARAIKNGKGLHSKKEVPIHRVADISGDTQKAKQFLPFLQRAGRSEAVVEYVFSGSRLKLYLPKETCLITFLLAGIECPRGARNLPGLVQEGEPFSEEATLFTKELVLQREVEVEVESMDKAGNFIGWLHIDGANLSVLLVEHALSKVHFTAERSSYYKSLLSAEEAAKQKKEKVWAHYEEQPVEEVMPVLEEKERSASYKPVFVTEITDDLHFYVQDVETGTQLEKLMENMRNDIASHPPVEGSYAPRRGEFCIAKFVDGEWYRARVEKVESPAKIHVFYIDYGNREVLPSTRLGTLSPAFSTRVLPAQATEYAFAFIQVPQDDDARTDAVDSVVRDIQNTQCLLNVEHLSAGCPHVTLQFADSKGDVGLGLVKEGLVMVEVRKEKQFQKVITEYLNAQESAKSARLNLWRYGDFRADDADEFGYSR

B1: Myc-MTDH, full-length human, wild type (other)
chain: MAARSWQDELAQQAEEGSARLREMLSVGLGFLRTELGLDLGLEPKRYPGWVILVGTGALGLLLLFLLGYGWAAACAGSRKKRRSPPRKREEAAAVPAAAPDDLALLKNLRSEEQKKKNRKKLSEKPKPNGRTVEVAEGEAVRTPQSVTAKQPPEIDKKNEKSKKNKKKSKSDAKAVQNSSRHDGKEVDEGAWETKISHREKRQQRKRDKVLTDSGSLDSTIPGIENTITVTTEQLTTASFPVGSKKNKGDSHLNVQVSNFKSGKGDSTLQVSSGLNENLTVNGGGWNEKSVKLSSQISAGEEKWNSVSPASAGKRKAEPSAWSQDTGDANTNGKDWGRSWSDRSIFSGIGSTAEPVSQSTTSDYQWDVSRNQPYIDDEWSGLNGLSSADPNSDWNAPAEEWGNWVDEERASLLKSQEPIPDDQKVSDDDKEKGEGALPTGKSKKKKKKKKKQGEDNSTAQDTEELEKEIREDLPVNTSKTRPKQEKAFSLKTISTSDPAEVLVKNSQPIKTLPPATSTEPSVILSKSDSDKSSSQVPPILQETDKSKSNTKQNSVPPSQTKSETSWESPKQIKKKKKARRET
notes: Full-length, Myc-tagged; Expressed in HEK293T cells, tested in lysate; also called Myc-tagged MTDH; WT Myc-MTDH
B1 was tested, and the “half-life of HA-SND1 in HEK293T cells at 45° C (heat shock)” value [1] was over 3 h and the binding result [2] was “no binding”.
